# B1: VHH H11D4 (VHH)
# VHH: QVQLVESGGGLMQAGGSLRLSCAVSGRTFSTAAMGWFRQAPGKEREFVAAIRWSGGSAYYADSVKGRFTISRDKAKNTVYLQMNSLKYEDTAVYYCARTENVRSLLSDYATWPYDYWGQGTQVTVSS
# notes: also called VHH11D4
# B2: VHH-72 (VHH)
# VHH: QVQLQESGGGLVQAGGSLRLSCAASGRTFSEYAMGWFRQAPGKEREFVATISWSGGSTYYTDSVKGRFTISRDNAKNTVYLQMNSLKPDDTAVYYCAAAGLGTVVSEWDYDYDYWGQGTQVTVSS
# Target: receptor binding domain (RBD) of the SARS-CoV-2 spike (SARS-CoV-2, UniProt P0DTC2, biotin (biotinylated; site not stated))
# Experiment: BLI
# Conditions: both partners purified
row,Binder,binding result
1,B1,binds
2,B2,binds

# Source: paper PMC9481167, “Biosynthetic proteins targeting the SARS-CoV-2 spike as anti-virals” (PLoS Pathogens, 2022)
